The source of these data is a protein production outcome set (Wang et al. 2014).

A short description of the data set: label from the status in PepcDB records.
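Further: failed if final PepcDB status was selected cloned or expressed and not failed if soluble or beyond.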

For the sequence “MNPEVTVLMSVYNDKNYLSESIESILNQTFENFEFLIINDASTDGSGELLEEYSKKDKRIRLIHNKNNRGLSYSLAEGVSLAKAPWIARMDADDVSFKDRLAVQMDHVKAHSELDILGSYVIDIDDKGNELEIRKVPTTHKEIANLIWTCPFIHPTVLFKKDSIIKAGSYDRNLRRRQDYDLWFRCLEAKLKFENIDKPLLYYRSTDDYYKKNNFKVQVQQAKMGFAGARRVKAKPIAYIGITVAFIKGILPYHIRKPLSQLLKKVDPRRALEHHHHHH”, the protein production result is “not failed”. Take “MNPIKPPFTLNQYFAAWFVHVFTASAACIGVFSLYKIYQHDYVFALWLMAITVFIDAVDGSLARLVHVKSVLPKIDGALLDNIVDYLNYVITPCFFLLVKPGMLPADYVVPITAAITITSAYQFCQDDAKTPDHFFKGFPCYWNITVFYMYIFNTSMIVNTVLLSLFCVLIFIPVKYVYPSRLDYLTESRVLKILMHCCSALYGISSFCLLVNYPETNKLWVSLSLGYVGMYLFLSFYRTYYPMFKAKITANNKD”: the protein production entry is “failed”. Take “MNPTLSAAVTAPSAGTQDAEAEIRDLAQSLTLEQQVQLLTGADVWSTHAIPEIGLSRVVMSDGPAGVRGEDFDERHDSVSLPSSSALSATWSVETARNYGQVLGQEARRKGVHAVLGPTINLHRSPLGGRHFECMSEDPRLTATMAAGYVAGVQSMGVGATPKHYLANEAETERFTADSVVDERPLRELYLAAFEDAITEARAWLVMSSYNSINGTTASENKLLETPLSTEWGFDGVVVSDWTGVRSIDAANAHQDLEMPGPVGHWGPKLLAAVNEGRVSREAILEKVTRILRLAARVGSLEGFEPAVTHLPTELNGAAVAREVAVRGAVLVRNKGLLPLDAKALGSVAVIGHNADEARTQGGGSATVMPKYTVSPLEGLRKALPEGVKVTYARGAKVAEGIQAFPRTSLHNPVSNVPGIRVTFLAEDGTEISGEDRLASHLIWFGIGIPDGAASIRMEADWTAETAGVHHLGVGTVGRIRFVLDGTEVFNSELEDDTEVLGAALFDPPKTVHAIDTTAGQSIRIEAEYQLPKEQVIPFTAILLGEETVVAEPQAEIDAAVEAARASDVAVVVVGTNAAIESEGFDRKDLDLPGYQNQLVKAVAAANPRTVVVVNSGSPVLMPWLDTVDAVLLGWFGGQEFGSAVADILLGVEEPGGRLPTTWPSALDDVPVLNTTPTDGKVVYSEGIHIGYRAWLKQQAEGGAAPALPFGFGLGYTTFEFGKAHAPQAVTAGKDLVVHVPVKNTGTRTGREVVQVYVERTESAVERPVRWLAGYAGAHLAPAGTESVEIRIPAKAFAHYDGGWQFEQGTFRLLVGRHAADDFQSLDIELR”: the protein production result is recorded as “failed”. Turning to “MNQEVRFSRLEPEQRKALLIEATLACLKRHGFQGASVRKICAEAGVSVGLINHHYDGKDALVAEAYLAVTGRVMRLLRGAIDTAPGGARPRLSAFFEASFSAELLDPQLLDAWLAFWGAVGSIEAIGRVHDHSYGEYRALLVGVLRQLAEEGGWADFDAELAAISLSALLDGLWLESGLNPATFTPRQGVQICEAWVDGLEAGAHRRFRRAMEAC”, the protein production entry is reported as “not failed”. Next, “MNQHLSISPSVSRPVWHQAIPLLLLEAALVLTWSSGFIGARFSLDYAPPLLVVFWRCVVVTLLLLPFVARQLVTLPPTLLLKNTGIGLLAMTGYVAGVTQGIALGVPAGLAALFADLLPMGMALLAALVLGQRLVWQIWAGLVVGLIGVVLVTHSALEWGNAPLWAYGLPLLGMFSLAIATLWQKHSTTSQPMKLLPNLWLQYFISSFAFAIIQGTQGGLAPIASSGFALSVAWTVGLATLGGYGLYWVCLRRAKATRVASVLYLSPPVTMLWAWAMFDEPLSWQIALGMVVSGVGVWMVIRAEARQVAS”: “failed”; “MNQMQGRLVAGRYRLGEAIGSGGMGRVWRAHDEVLHRTVAIKELTAALYVSESDQAILLARTRGEARAAARINHSAVVTVHDVLEHDGRPWIVMELVEGRSLADAVKEEERVDPREAARVGLWVLRALRAAHTAGVLHRDVKPGNVLLADDGRVLLTDFGIAQIEGDSTITRTGEVVGSVDYLAPERVRGHDPGPSSDLWALGATLYTAVEGRSPFRRTSPLTTMQAVVEEEATEPRYAGALAPVISALLRKDPAERPDATEAEHLLAQAAEGRRPDAAQAYVPTTRYEGPPRAGDTAVQGMPAGGSGATPYPQAGGSGATPYPPTTGPTGAGPAPTGHTRGGYTQVGHTEGGYTAPGYAPAPAVGGAAPGRARRVRMRTLALVVAVAALIGAGTAVVLHQRDEGGSSAGADPTQGPTGSAAPSPSPSASATTGKGPGGSVPADWTRRDDPLGFSLYLPENWQRRDFDGDSGELRQIDYTPDGGNHVLRISVDTAPDYNDPYAHQQDLDAQLLQRLVDYRRVKLERAGYRDRDSARWEYTWTALAKDTEFPGPRRAVSQMYMSRDGVEYALNMTGPAGDWPTTQRRFKAVLQGWQEETG”: “failed”. Next, “MNQQEVAADYLKYFDDMLAKAADLTKDIKDADKKTVVYGNVSKFSQPHVIAEWWIDKAGGISVTSEAMTKANKESLTYTLEDLLKWNPDVMFVASAAEKKEVLADARLGEITAVKNGAIYIVPRIAHVWGNRTTEQPLTIMWAMNKLYPEIVTLEHHHHHH”: “not failed”; “MNQVEMTEFPVGKPQEALYGVASTPDGALWFTLAKGNAIGRLSPDGAVSRFPLPHTDGQPTTITCGPDGRPWFTLSSANAIGRLAPDGALRMFELPRPASRPFGIAGGHDGCLWFAEMAGDRIGRITIDGDIEEYDLPVKGGYPSCMAAGRDGLMWFTLNQAGAVGSISATAAPRIFPLGAADAAPVGIASDAQGALWIAQAGNGAIVRFDAGGRITEFPLHSRAARPHAIAADAAGNLWFTEWGANRIGRISEAGDLAGYELAAPGSEPHGIAIDPHGCVWAALETGRLVRLQASPRDLEHHHHHH”: “not failed”. Next, “MNQVHHAAQQGFSQAAELYQHARPNYPQAVVEWLKQDLRLNKYSKVVDLGAGTGKFLPYLKQVTTDIVAVEPVHEMLQQLQTAHPDIKVLQAQSTNIPLESESIDAVLCAQSFHWFANIESLNEIYQLLKPSGHLGLIWNQRDENIDWVKQIADMLMTFEGDTPRYHSGEWKKAFEHQHLFKLEHARVFSHVHTGTVEQVVSQRLLSTSFIAAMPEAQQQQLKQQFEHIVFECTGKQPTDQIDFPYITYAYDFKKI”: “failed”; “MNQVVEFLKIFIPLFIVIDPFGSLVLFTSMTYNFNESEKLRATKDAVFYGGIILVLFALAGEYIIYFFGISIEALEMAGGIILLLMAVEMIMEGNRPKSSGSEIVDYDIGIVPFATPMLAGPGAISLVIILMKGPIIAKIYTIISIAIIFAMVYIFFKWSSVVSKFIGAKVMKAISRIFGLLLAGFAIQYFIDAIVALSLLK”: “failed”; “MNREELFDVTVIGGGPAGLYSAFYSGLREMKTKIIEFQPQLGGKIHVYPEKMIWDIGGLLPVTGEKLIEQLVQQGLTFQPEVVLNTKIESIIRNKDGIFTLKTSTGEEHFSKTVIVATGSGILNPQKLSIEGAERFEVSNLNYTVKSLKRFKNKTVIISGGGNSAIDWANELEPIAKKVYLTYRKEELSGHEAQVKQLMNSSAECFFNTSITTLIAGDNHEAIEYVELTNHETGEVSQLAIDEVIINHGYERDITLLENSELDVAIIDNYYIAGNANSESSVDGLYAAGDILKHEGKLHLIAGAFQDAGNAVNKAKQFIQPDASEYGMVSSHNEVFKKRNRELIKQMMK”: “failed”. On to “MNREKLMKMANTVRTGGKGTVRRKKKAVHKTNTTDDKRLQSTLKRIGVNSIPAIEEVNIFKDDVVIQFINPKVQASIAANTWVVSGSPQTKKLQDILPQIISQLGPDNMDNLKKLAEQFQKQASGEGNAASATIQEEDDDDVPELVGETFETAAEEKAPAAAASS”, for which the protein production result was “failed”.

As to “MNRFIGYIQVACCCLLLCASCVRDGMDEDCNSYVRFVYDYNLEYIDLFHKQATKMNLYVFDEKGVFVTELKEESGAFAPDYLMTLPGAMAGRRYIFVAWSGLYGESYDKVTLTPGVSTLEDLEVSVNNLKTRIGGGVVDRELHLLWHGKQTEVSPQYNNDITTVSLLKNTKKFRIIMQMLDDSSIHVDDYDFRIISPNGRYNHENGLLGDETDEKVEYTAYHTEDDPETGAIAELNTLRLMTDTENRLVITHKSSGNVILDIPLNKYLNALRLQQYADIPLQEYLDRADKHGIILFFKGMDGNGNYISVDVQINGWLIRKQEVDGV”, the protein production result is “failed”. For the sequence “MNRMMALVMAGGRGTRLAIDCEKPLLEVAGRPMIDHVLEALESATGVDGIIVVTSPHTPMTEDHVRGRHPIFRASGGGYVEDLREVLSHLEESYHEPLLVINSDLPLVRPSTIDWIISSYHSCPEPAMCVAVPDDLCRRHGLDFSGSLDGLVPCGVNILMSKNRVQEQRILEASMLELAVNINSCRDLKVLEKILGEIDGREEAHKRGREVLELEHHHHHH”, the protein production result is “not failed”. Next, “MNRNKIAALIFAVSTVCVVSAHSENAYATEHKNSNQLEENNQTRSVKKGQVINVSTNLRIRKSPNTSSDVIGYLTNGEIFNIDGKEGSWYKINANGKVGYIHGDYVKEVTGNSNSSSNNSGSNSNLDTSLAGKKGTVVNVSTSLRVRQSPSTSSSVVGSLRGGQTFEIKGKSGSWYYINANGLTGYIHGDYVQVGENSSNNGGQSSGNNGQSSENNSGMDTSLAGKTGKVVNVSTSLRIRQSPSTSSSVVGSLSAGQTFKINGKNGAWYNIDAQGTKGHVHGDYVQVLSGNESSNSGSNNNQSGSQNNNLDESYNGKAGKVVNVTTNLRLRSQPSTSSSVLAYLLPNERFTLQGKTSSGWFKVNYNGKIGYLHEDYVKIVSSDEGANGNTGGSTGGGQVNQSKYEQVLSIMKSQIGSPYIYGGAGETLTSSLLSSLRRTFPDHAARGFYDIPSNYLNGNYRAFDCSGLMQWSFRQAGISLGRTTWDQINNGYEVSPSNAKPGDLLFFSNLGHVGMYIGNGQWIEAPNKGKFVSITSVPWSKIGRARRVL”: “failed”; “MNRNLLYMILRLIFVIVATVAGFYVLLYMSGLIYPFIIAFAFAYLINPVVNFLNQKLQFPRALAVLVSLILVFGAIVGLVTYLVTEAISATTYLLQLVTVKFPDIVTFAQQFALNHIMPLYDDLISKFNHLGEPQRYTITQNIQNLGTEATTQMKELLTAIISGLTNFISALPTTLTVLVFILLATFFISYDWHRLAQKARKLLPNRVHGYGKTIFVDLRKALFGFVKAQLTLVSMTTVIVLIGLLILRVPYAITIAIITGVVDLLPYLGTGAVFVPWVIYVFFTGDTAFAIGLLILYIVVIVQRQIMEPKVLSSNIGLDPLATLVALFVGFKLFGFLGLIIGPVTLVLLNTLHKANVFHDLWKYIKGSPSK”: “failed”; “MNRNRQLSDPSRFSGMAAGFFMATLGAVLFSGKAIVVKFTYRYGIDAVTLIAFRMLFAMPFFAAVAWWQARRAARGELPVLSWRERGQLCALGLLGYYLSSFLDFLGLRHITAGLERLILFLSPSLVVLLSAWWLKRPVTRRQWGAMLLSYVGVALVLSHDLSQSGAGADVLTGSFFVFCSALSYSVYLICSGELVERVGATRLVAYAMLVSCVASLIQFFLIHPASVLVQPAAVYGYSVIHATVNTVLPVFMLMWAVALVGAPTASLLGMVGPVSVLFLAAWFLDEPITVWQLAGTALVLAGVFVLAGRRRPARP”: “failed”.

Consider “MNRREVRCAFSASKAARAQLLLRGKVRLEPLPTRPRTVLGLDASYSAKDGVGVGAAVLISLETLEPVDCRVYISRVCIPYIPGLLAFRELAVMAPAAAALSAEADVVMVDGHGIAHPRRFGIASHVGVILERPSIGVAKKKLVGTLVEGPGGMYVVQDGERLAIVLGTRPREVYVSPGHRITLEEAASIARATIRPGGWMPEPTRLADVISKALKTIIGGQSLINSALASLCRVKLGPRLEELERPLRRAGLEVELEHHHHHH”, for which the protein production entry is listed as “failed”.

For the sequence “MNRVIACIDSSPCINAIAEAAAWVARQTKRELVLLQILDYYPASYHLGEISGVIGFESNAMLLKELAELEQKQSDLAIDYSNNLLKHISDMILEKYGIQSTKIQEKGDFLEQSFNVLRETDFVIIGKVGERAAEKNKPIGSNVENFIRGANCTVMTVGEHFKIPTRFIFAYEYSPTCLNLMQRIAQSDLLKTLQCHLLYVGDHPEVLKDPEEFLKNAGLDVITVYRYGDVAENILEYQKELGIQMIVLGAFSHSKIHQFFLGSIATSIFRNATVPLLVAK”, the protein production entry is recorded as “failed”.
